Results: article PMC4609183

Molecular target: R0RBR parkin (residues 141–465, lacking Ubl domain and linker) (human) (UniProt O60260)
Experiment: ITC; 50 μM R0RBR, full-length parkin or phosphoparkin titrated with Ub, Ubl or their variants; 25°C; 50 mM HEPES, 50 mM NaCl, 250 μM TCEP pH 7.5 or 50 mM HEPES, 150 mM NaCl, 0.5 mM TCEP pH 8.0; single-site model

| Kd [µM] | dH [kcal/mol] | stoichiometry N | Substance |
| --- | --- | --- | --- |
| 5.3 | -11 | 0.98 | parkin Ubl domain S65E (domain or fragment) |
| 26 | -3.82 | 1.04 | phosphorylated parkin Ubl domain (domain or fragment) |
| 5 | -9.08 | 1.03 | parkin Ubl domain S65D (from UniProt O60260 144-465) (domain or fragment) |
